Consider one molecule from patent publication US20170275344A1, “POLYPEPTIDES AND USES THEREOF AS A DRUG FOR TREATMENT OF AUTOIMMUNE DISORDERS” (Compugen Ltd., priority 2014, published 2017).

The subject of one assay is SJL/J mice. The assay is described as follows: BBB breakdown and inflammation by fluorescence molecular tomography in adoptive transfer R-EAE. The class given is in vivo, mouse. Particulars: Day +30, treatment from onset of remission. Here is the method:
[…] At the time of imaging mice were anesthetized by administration of sodium pentobarbital (50 mg/kg) and then imaged using the FMT 2500 fluorescence molecular tomography in vivo imaging system. The data is presented as pmol of CathepsinB or AngioSense present within the brain (B) or spinal cord (C).
Commercially available near infrared (NIR) imaging agents were used to perform tomographic imaging (PerkinElmer Inc., Boston, Mass.). […] For the in vivo imaging, mice were injected intravenously with 4 nmol of NIR fluorescent agent 24 hrs prior to imaging, and imaged following the last treatment with Control Ig or C1ORF32 ECD-Fc (SEQ ID NO: 42) (Day +30 post-PLP139-151 blast cell transfer). At the time of imaging, mice were anesthetized by administration of sodium pentobarbital (50 mg/kg) and then imaged using the FMT 2500 fluorescence molecular tomography in vivo imaging system (PerkinElmer Inc., Boston, Mass.). […] Appropriate optical filters allowed the collection of both fluorescence and excitation datasets, and the multiple source-detector fluorescence projections were normalized to the paired collection of laser excitation data. […] The total amount of fluorescence (in pmoles) in different organ sites was automatically calculated relative to internal standards generated with known concentrations of appropriate FR/NIR dyes. […]

Another assay concerns male DBA-1 mice. The assay is described as follows: Established collagen-induced arthritis (CIA), therapeutic regimen. The class given is in vivo, mouse. On the procedure: Bovine type II collagen (CII) (RUNMC in house production, batch 03-04-08) at a concentration of 2 mg/ml in acetic acid 0.05M was emulsified in equal volumes of Freund's complete adjuvant (2 mg/ml of Mycobacterium tuberculosis strain H37Ra; Difco, Detroit, Mich.).
On day 0, 10-12 week old male DBA-1 mice (Janvier Elevage, France) (n=95) were immunized i.d. at the base of the tail with 100 μg of bovine CII. On day 21, mice received an intraperitoneal booster injection of 50 μg of CII dissolved in phosphate buffered saline (PBS), and the onset of arthritis occurred a few days after this booster.
Joint inflammation in each paw was scored visually, using a scale of 0-2 per paw with a maximal score of 8 per animal: 0=non inflamed, 1=mild inflammation, 1.5=marked inflammation, and 2=severe inflammation. Scoring was performed three times a week.
Treatment was started in established CIA early after onset of disease (i.e. therapeutic regimen), when the macroscopic scores per animal were between 0.25 and 1.25 (on a scale of 0-8). The i.p. injections were given three times per week for two weeks, after which the study was terminated and mice were terminally bled to collect serum. Thereafter, the knee and ankle joints were collected and stored in formalin. Histology was scored for inflammation and destruction on an arbitrary scale of 0-3, for five different parameters: • Joint inflammation • Cartilage proteoglycan (PG) depletion • Chondrocyte death • Cartilage erosion • Bone erosion
1. Negative control: PBS 2. Negative control mIgG2A (Bioxcell, BE0085): 10 mg/kg 3. C1ORF32 ECD-Fc (SEQ ID NO:42): 10 mg/kg 4. C1ORF32 ECD-Fc (SEQ ID NO:42): 5 mg/kg 5. Positive control: Enbrel (Wyeth, F01421) 5 mg/kg
Joints were fixed for at least 4 days in 4% formaldehyde, decalcified in 5% formic acid, and subsequently dehydrated and embedded in paraffin. Standard frontal sections of 7 μm were mounted on SuperFrost slides (Menzel-Glaser, Braunschweig, Germany). Haematoxylin and eosin (H&E) staining was performed to study joint inflammation. The severity of inflammation in the joints was scored on a scale of 0-3 (0=no cells, 1=mild cellularity, 2=moderate cellularity, and 3=maximal cellularity). To study proteoglycan (PG) depletion from the cartilage matrix, sections were stained with safranin O (SO) followed by counterstaining with fast green. Depletion of PG was determined using an arbitrary scale of 0-3, ranging from normal, fully stained cartilage to destained cartilage, fully depleted of PGs. Chondrocyte death was scored on a scale of 0-3 ranging from no loss of chondrocyte nuclei to complete empty cartilage surface. The degree of cartilage surface erosion was scored on a scale of 0-3, ranging from no damage to complete loss of articular cartilage. Bone destruction was graded separately on a scale of 0-3, ranging from no damage to the complete loss of bone structure. Histopathological changes in the joint were scored on three semiserial sections of the joint spaced 70 μm apart. Scoring was performed in a blindfolded manner.
Statistical analysis: Disease course data was analyzed using one-way ANOVA with repeated measures, with a Bonferroni's post-test of selected pairs to determine statistical differences between C1ORF32 ECD-Fc (SEQ ID NO:42) and Enbrel treated mice, each as compared to Control Ig (IgG2a) treated group.

B1: C1ORF32 ECD-Fc (SEQ ID NO:42): fusion protein of human C1ORF32 ECD fused to mouse immunoglobulin Fc (human-mouse fusion protein) (protein)
chain: LQVTVPDKKKVAMLFQPTVLRCHFSTSSHQPAVVQWKFKSYCQDRMGESLGMSSTRAQSLSKRNLEWDPYLDCLDSRRTVRVVASKQGSTVTLGDFYRGREITIVHDADLQIGKLMWGDSGLYYCIITTPDDLEGKNEDSVELLVLGRTGLLADLLPSFAVEIMGSENLYFQGSGEPRGPTIKPCPPCKCPAPNLLGGPSVFIFPPKIKDVLMISLSPIVTCVVVDVSEDDPDVQISWFVNNVEVHTAQTQTHREDYNSTLRVVSALPIQHQDWMSGKEFKCKVNNKDLPAPIERTISKPKGSVRAPQVYVLPPPEEEMTKKQVTLTCMVTDFMPEDIYVEWTNNGKTELNYKNTEPVLDSDGSYFMYSKLRVEKKNWVERNSYSCSVVHEGLHNHHTTKSFSRTPGK
modifications: Fusion protein human C1ORF32-ECD fused to mouse IgG2a Fc
For the molecule B1, the “monocyte/macrophage activity in the brain and spinal cord (lysosomal CathepsinB activity)” value with SJL/J mice is reported as “reduced lysosomal CathepsinB activity; however this effect did not reach statistical significance”. In addition, the “vascular leakage in the brain and spinal cord (AngioSense720 levels)” value in the assay with SJL/J mice (significant) is recorded as “decreased vascular leakage”. For the same molecule, the “clinical (macroscopic) scores of arthritis” value in the assay on male DBA-1 mice (5 mg/kg i.p. 3x/wk for 2 wks) is “did not demonstrate any effect”; in the assay on male DBA-1 mice (10 mg/kg i.p. 3x/wk for 2 wks, p<0.001 vs mIgG2a) it was “significantly reduced the clinical scores of arthritis”. Besides, the “histological arthritis pathology of ankle joints” value with male DBA-1 mice (10 mg/kg, after two weeks of therapy, did not reach statistical significance) is given as “trend of reduced arthritis pathology”. Besides, the “results over three CIA studies” value in the assay with male DBA-1 mice (three studies) was “excellent results in two studies and weak results in one study”.
